Reference: article PMC12124358

Tests used:
[1] = target: H3 (3–19)_([change]-[change]) (UniProt P68431); test: crystal structure
[2] = target: H3 (3–19)_([change]-[change])-Ub_([change]) (UniProt P68431); test: crystal structure
[3] = target: unmodified histone H3 N-terminal tail (residues 1 to 20) (UniProt P68431)

Clr4 lysine methyltransferase (KMT) domain (residues 192 to 490), sequence (O60016 192-490): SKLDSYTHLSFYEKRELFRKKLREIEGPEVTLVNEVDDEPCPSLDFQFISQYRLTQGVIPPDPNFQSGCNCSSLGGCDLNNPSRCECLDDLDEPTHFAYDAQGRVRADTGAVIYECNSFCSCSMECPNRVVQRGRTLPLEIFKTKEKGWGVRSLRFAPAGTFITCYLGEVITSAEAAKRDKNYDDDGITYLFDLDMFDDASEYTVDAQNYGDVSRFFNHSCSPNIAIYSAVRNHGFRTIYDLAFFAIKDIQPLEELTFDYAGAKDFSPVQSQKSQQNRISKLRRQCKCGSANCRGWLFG
full-length Clr4 (residues 1 to 490), sequence (O60016 whole entry, the tested form may be a part): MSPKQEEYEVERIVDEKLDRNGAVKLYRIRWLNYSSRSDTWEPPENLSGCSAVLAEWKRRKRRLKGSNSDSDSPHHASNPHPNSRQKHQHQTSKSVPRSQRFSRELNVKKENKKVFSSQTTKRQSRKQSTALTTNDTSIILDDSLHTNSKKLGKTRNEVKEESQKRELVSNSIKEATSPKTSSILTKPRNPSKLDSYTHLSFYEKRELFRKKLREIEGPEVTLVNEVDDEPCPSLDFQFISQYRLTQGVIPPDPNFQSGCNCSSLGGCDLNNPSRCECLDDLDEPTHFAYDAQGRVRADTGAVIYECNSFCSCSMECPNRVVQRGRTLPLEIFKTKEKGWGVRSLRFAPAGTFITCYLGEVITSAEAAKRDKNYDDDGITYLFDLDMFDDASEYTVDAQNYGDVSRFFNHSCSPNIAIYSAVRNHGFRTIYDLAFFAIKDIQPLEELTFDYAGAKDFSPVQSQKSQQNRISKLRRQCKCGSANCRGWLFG

| stoichiometry N [1] | stoichiometry N [2] | Km, Michaelis-Menten kinetics of H3K9 methylation (MTase-Glo, SAH production) [3] [µM] | Substance |
| --- | --- | --- | --- |
| 1 | 1 | – | Clr4 lysine methyltransferase (KMT) domain (residues 192 to 490) (from UniProt O60016 192-490) (domain or fragment) |
| – | – | 75.8 | full-length Clr4 (residues 1 to 490) (from UniProt O60016 1-490) (enzyme) |
| – | – | 26.5 | full-length Clr4 K455A/K472A (automethylation-mimicking) (from UniProt O60016 1-490) (enzyme) |
